Assays:
DMF5 T cell receptor [1] = test: flow cytometry, tetramer titration on Jurkat T-cells transduced with DMF5
DMF5 T cell receptor [2] = test: flow cytometry, barcoded tetramer library on Jurkat/MA cells transduced with DMF5

fold improvement in EC50 relative to photo-exchanged tetramers (DMF5 T cell receptor [1]): 2.6 fold
percent of cells stained (DMF5 T cell receptor [2]): 33%
Substance: MART-1/HLA-A*02:01 tetramer (from UniProt P61769 21-119) (peptide-MHC)

Source: US20240294601A1
